From patent EP2644619A1 (Spiber Technologies AB, dated 2013)
Where a chain is given by its changes, count along the chain named.

B1: NT (wild type N-terminal fragment of Euprosthenops australis major spidroin 1) (protein)
chain: GSGNSHTTPWTNPGLAENFMNSFMQGLSSMPGFTASQLDDMSTIAQSMVQSIQSLAAQGRTSPNKLQALNMAFASSMAEIAASEEGGGSLSTKTSSIASAMSNAFLQTTGVVNQPFINEITQLVSMFAQAGMNDVSA
B2: NT^A72R (other)
chain: B1 chain with A72R
notes: also called mutated NT; mutant NT

Assays:
[1] = molecular target: NT (wild type N-terminal fragment of Euprosthenops australis major spidroin 1) (Euprosthenops australis); assay: tryptophan fluorescence, 5 uM protein, between pH 7 and pH 6; the filing uses it as a probe of dimerisation
[2] = molecular target: the molecule itself; assay: comparative structural studies, pH lowered from 7 to 6 (self-association)

Binder	red-shift in fluorescence emission [1] [nm]	binding result [2]
B1	15	
B2		no binding
